The text below walks through data of the Human Domainome abundance scans (Beltran et al. 2025).

± gives the uncertainty stated by the source.

Sequences and labels used below:
B1: Chromodomain-helicase-DNA-binding protein 4, residues 444 to 496; numbered along this chain, Q14839 (parent)
chain: EDDHHMEFCRVCKDGGELLCCDTCPSSYHIHCLNPPLPEIPNGEWLCPRCTCP

The series covers variants of B1. In words: abundance fitness (aPCA) (normalised: wild type 0, dead -1); higher = more abundant; growth selection in yeast, the domain comes from the species named. Particulars: Homo sapiens.
In the case of W45P, the abundance fitness is -0.503 ± 0.046.
Regarding W45D, the abundance fitness was -0.473 ± 0.072.
As for W45Q, the abundance fitness is -0.509 ± 0.065.
For W45I, the abundance fitness is -0.533 ± 0.082.
Under W45R stands -0.446 ± 0.044; under W45A, -0.517 ± 0.057.
For the variant W45F, the abundance fitness was -0.085 ± 0.084.
Next, W45L: -0.591 ± 0.053; W45N: -0.428 ± 0.079.
With W45E, the abundance fitness is -0.517 ± 0.055.
W45M: the abundance fitness is -0.398 ± 0.063.
With W45H, the abundance fitness was -0.489 ± 0.065.
W45G: the abundance fitness was -0.487 ± 0.05.
Next, W45C: -0.616 ± 0.05; W45K: -0.549 ± 0.066.
Turning to N42S, the abundance fitness is -0.063 ± 0.05.
Turning to N42H, the abundance fitness was -0.094 ± 0.055.
Under N42I stands -0.096 ± 0.055; under N42M, -0.127 ± 0.06.
Consider N42A, for which the abundance fitness amounted to 0.037 ± 0.06.
Next, N42P: -0.065 ± 0.055; N42Q: 0.005 ± 0.069; N42W: -0.253 ± 0.058.
For the variant N42L, the abundance fitness was -0.077 ± 0.047.
Next, N42G: 0.038 ± 0.052; N42V: 0.032 ± 0.044; N42C: -0.061 ± 0.054.
For N42Y, the abundance fitness was -0.197 ± 0.049.
Take N42F: the abundance fitness was -0.219 ± 0.053.
Under N42R stands -0.022 ± 0.053; under N42D, -0.085 ± 0.054; under N42K, 0.081 ± 0.063.
As for G43D, the abundance fitness is -0.151 ± 0.057.
As to G43K, the abundance fitness was determined as 0.03 ± 0.07.
Next, G43F: -0.188 ± 0.058.
Consider G43M, for which the abundance fitness is -0.195 ± 0.067.
In the case of G43R, the abundance fitness is -0.044 ± 0.059.
G43H: the abundance fitness was -0.13 ± 0.067.
Take G43L: the abundance fitness was -0.201 ± 0.049.
With G43Q, the abundance fitness is -0.032 ± 0.074.
For G43E, the abundance fitness is -0.07 ± 0.047.
Next, G43S: -0.061 ± 0.05.
With G43N, the abundance fitness is -0.068 ± 0.078.
As to G43P, the abundance fitness was -0.287 ± 0.058.
As for G43I, the abundance fitness is -0.144 ± 0.047.
Consider G43V, for which the abundance fitness is -0.075 ± 0.053.
With G43C, the abundance fitness was -0.16 ± 0.054.
As to G43A, the abundance fitness was -0.079 ± 0.043.
Regarding H29D, the abundance fitness was -0.811 ± 0.079.
H29I: the abundance fitness was -0.822 ± 0.09.
On to H29P, for which the abundance fitness is -0.814 ± 0.072.
Turning to H29M, the abundance fitness was -0.998 ± 0.097.
For the variant H29R, the abundance fitness was -0.97 ± 0.059.
Under H29A stands -0.748 ± 0.056; under H29L, -0.983 ± 0.066; under H29W, -1.1 ± 0.1.
Next, H29F: -0.918 ± 0.11; H29T: -0.921 ± 0.048; H29E: -0.804 ± 0.11.
For the variant H29S, the abundance fitness is -0.728 ± 0.054.
Next, H29Y: -0.787 ± 0.072; H29V: -1.06 ± 0.063.
Regarding H29Q, the abundance fitness was -0.833 ± 0.11.
With H29N, the abundance fitness is -0.556 ± 0.12.
With H29C, the abundance fitness is -0.317 ± 0.063.
For the variant I40L, the abundance fitness amounted to 0.01 ± 0.041.
Consider I40D, for which the abundance fitness is -0.152 ± 0.11.
Under I40V stands 0.055 ± 0.043; under I40W, -0.041 ± 0.071.
Take I40M: the abundance fitness is -0.106 ± 0.067.
As for I40G, the abundance fitness is -0.007 ± 0.059.
Under I40P stands 0.112 ± 0.052; under I40S, -0.023 ± 0.044.
In the case of I40N, the abundance fitness was -0.066 ± 0.057.
With I40H, the abundance fitness came to 0.017 ± 0.052.
On to I40R, for which the abundance fitness was determined as 0.151 ± 0.052.
With I40K, the abundance fitness was found to be 0.11 ± 0.065.
On to I40T, for which the abundance fitness is -0.005 ± 0.05.
Consider I40A, for which the abundance fitness is 0.07 ± 0.06.
In the case of I40C, the abundance fitness turned out to be 0.019 ± 0.048.
With I40Q, the abundance fitness worked out at 0.01 ± 0.067.
Take I40F: the abundance fitness was -0.057 ± 0.07.
Consider I40E, for which the abundance fitness is 0.056 ± 0.092.
Take I40Y: the abundance fitness worked out at 0.016 ± 0.059.
As to P35E, the abundance fitness was -0.076 ± 0.088.
Next, P35N: -0.302 ± 0.064; P35K: -0.199 ± 0.072.
Regarding P35L, the abundance fitness is -0.378 ± 0.046.
Under P35H stands -0.386 ± 0.071; under P35W, -0.593 ± 0.047.
As for P35G, the abundance fitness was -0.289 ± 0.067.
On to P35A, for which the abundance fitness is -0.296 ± 0.057.
For P35Q, the abundance fitness is -0.226 ± 0.064.
For the variant P35S, the abundance fitness was -0.261 ± 0.042.
Next, P35D: -0.262 ± 0.093; P35F: -0.45 ± 0.05; P35V: -0.399 ± 0.059.
For the variant P35Y, the abundance fitness was -0.301 ± 0.052.
For the variant P35T, the abundance fitness is -0.198 ± 0.051.
Take P35I: the abundance fitness was -0.432 ± 0.078.
Regarding P41V, the abundance fitness is -0.154 ± 0.046.
Consider P41T, for which the abundance fitness is -0.114 ± 0.046.
Under P41N stands 0.029 ± 0.081; under P41Q, -0.18 ± 0.062.
With P41K, the abundance fitness was -0.118 ± 0.067.
Regarding P41M, the abundance fitness is -0.187 ± 0.05.
Regarding P41D, the abundance fitness was -0.282 ± 0.097.
With P41R, the abundance fitness was -0.144 ± 0.053.
For P41C, the abundance fitness is -0.135 ± 0.092.
For the variant P41F, the abundance fitness was -0.06 ± 0.1.
Next, P41A: -0.146 ± 0.059.
Turning to P41G, the abundance fitness was -0.133 ± 0.065.
Turning to P41L, the abundance fitness is -0.228 ± 0.056.
Regarding P41H, the abundance fitness is -0.142 ± 0.053.
Under P41S stands -0.226 ± 0.059.
In the case of P41Y, the abundance fitness is -0.463 ± 0.093.
P41I: the abundance fitness is -0.106 ± 0.062.
P41E: the abundance fitness was -0.2 ± 0.06.
As to I30E, the abundance fitness was -0.072 ± 0.07.
For the variant I30M, the abundance fitness was 0.026 ± 0.062.
Next, I30R: -0.016 ± 0.061.
In the case of I30V, the abundance fitness turned out to be 0.005 ± 0.054.
I30Q: the abundance fitness was -0.159 ± 0.06.
Under I30D stands -0.473 ± 0.1; under I30Y, -0.102 ± 0.057; under I30K, -0.047 ± 0.08.
Next, I30A: -0.003 ± 0.056; I30S: -0.018 ± 0.046; I30G: -0.115 ± 0.058.
Regarding I30C, the abundance fitness is -0.108 ± 0.076.
As to I30F, the abundance fitness is -0.037 ± 0.067.
In the case of I30N, the abundance fitness is -0.072 ± 0.062.
As for I30T, the abundance fitness is -0.044 ± 0.055.
Under I30H stands -0.106 ± 0.061.
For the variant I30L, the abundance fitness is -0.023 ± 0.043.
Regarding I30W, the abundance fitness was -0.238 ± 0.052.
Take S26L: the abundance fitness is -0.088 ± 0.048.
As for S26P, the abundance fitness was -0.625 ± 0.067.
As to S26W, the abundance fitness is -0.11 ± 0.068.
Under S26R stands 0.003 ± 0.042.
Under S26V stands -0.132 ± 0.063; under S26G, 0.029 ± 0.059; under S26K, -0.324 ± 0.049.
For the variant S26M, the abundance fitness was determined as 0.132 ± 0.052.
In the case of S26H, the abundance fitness worked out at 0.021 ± 0.07.
Next, S26Q: 0.08 ± 0.072; S26Y: -0.103 ± 0.071.
Under S26N stands -0.073 ± 0.08; under N34I, -0.075 ± 0.051; under N34C, -0.155 ± 0.067.
Turning to N34M, the abundance fitness was -0.127 ± 0.068.
Turning to N34G, the abundance fitness was -0.345 ± 0.075.
In the case of N34D, the abundance fitness was -0.114 ± 0.09.
N34E: the abundance fitness is -0.145 ± 0.091.
Next, N34A: -0.08 ± 0.057; N34V: -0.073 ± 0.061; N34K: 0.052 ± 0.071.
For the variant N34R, the abundance fitness was -0.205 ± 0.053.
On to N34S, for which the abundance fitness is 0.018 ± 0.048.
In the case of N34H, the abundance fitness is -0.262 ± 0.069.
For the variant N34T, the abundance fitness was -0.014 ± 0.05.
For the variant N34F, the abundance fitness is -0.158 ± 0.042.
Under N34P stands -0.219 ± 0.054; under N34L, -0.197 ± 0.046.
Under L37T stands -0.23 ± 0.055; under L37F, -0.271 ± 0.056.
Next, L37V: -0.066 ± 0.053.
